Consider 2 variants from IntAct's records for PubMed 18923418.

Sequences and labels used below:
B1: Ras GTPase-activating-like protein IQG1 (Candida albicans (strain SC5314 / ATCC MYA-2876)), Q5AH02 (parent)
chain: MAIGNIAARYLSSLEETDTTATTTTTTTSNVLQPSNRLNSPTKFNRKSLDNNSQDLDALARALNITPSKPETPTSISKGSATSLLRTKFESPSATVSSFKSTSSSNGVSPTKKNHFVEITSDETPSWANKNYKDILNKSPTKFNTQSNVHTPLKQLNQPIGTPSSSSLSPAKNASKSSPGYEYLCRIEAIKQWLESVLQEQITQSASQLISYIRNGIHLAKLANVVLPTSKPVFLNDSKLQFKHTENINRFFQLLDFFNMPDLFRFELTDLYDAKNVPKVWFCLHALSYILHKQDPSYPAMNNLVGKVDFSADDIRTANRALVNSPLPNFSSADTGEGKSDTSNNNSSTTSATAAFMDKVTSPVKKTPSPLKRPQQLQKKQLELVEDNKPELTQDSSGLSKISRDDPFTDRVDLAPPSTSNAKLELHTPPSKSLEFKIKSPIIDLSHRDSDYYTPELESHLPNIIKFQSLARGAVFRYLMFVDRILLKSYQDEFTNLFAIIRGNKARRKTVHKHRDELRLYSFEIIELQSIIRKNFVINKKPNFTSITNDVETVELQSLIRGKLTRDWKKYVTNGLEKFTPQIIDFQSLVRMKSIYSKSNKVISYKDEILPSLIELQSIARSQLYHRFSRSNAIDETEIIKIQSIIRRNAVIEDLYTKLSKVRSNKRRLIELQSIARGGVARTKLCNSVLVTLIYEDGILNQLFAKIRGDNYRKKFNSQKSELLKYEKSSIIPVQTLFRGVLSRYTKEVTLSDIFDQIDSVITLQSVARGKLMRGSIYEFSDYYQKHIKQVVKAQAILQRVFAQNAYKQLITSKNPPLKVIRRFAPLLSNNDRDFQDEMTLSDLKDLIIEKCKANEEYENQIEQLDMKLGLLDKNKISIEEFLKPTKGKTFKPIVENVKNLERLNKSLKKKIELWQTLFYFIQTNPIYLTKLFNSIPYTKNQTKSGQDLFQSVIQLFPVRDSSITYHSREEYFLVKLMIQLMQNDTANSNNLGDITKLHLTNWIDFFTNFNNHTFQRQHLKALLGKFVIRIVDNEQVDFESDPIRIYNQIIDHEMKVYGRSEKSRDISPQAAIQLPEVSNKFVGNLMSLRETCSDLLSMLQKNASGNKALLQIPDHVKLICRQGYLCAQRKFPDKSDQQHLAVAGVIFVKHYLGSILQVPENYGILTGNNDTQKAKSKDNLRYLYRVMLQLFSMKPFNDNFLKPLNEYIMASTDTVKSIISQAIINVGEIETVYELHDYDDLVTHQRPKLTISVNSLIQLEKSILQNVDIITTGNDDQLYKTCVEVEKLLISPQDMLTLTDLSSVTLNLNPTTQEESIVDSKTKTLFTQAKRCLLYIIRVQEEDDSDDLLELLISGIKPSHEQRFKEIVQYEKAEQDISLNNSKSVTANTVNKKKSTRPYSGTSLGDLSNLTYHELKKMCLEIILKLESMGELTRKNSFQTLLNQIAMDIKTKDSQRQCRWQQLQVSQKTIKKLSEKENYLKTQLHNYKKHVESVLLELQSKSKSNDKNWKRRLFNIMVIPVFSKQYFYHRELRKHNRLPKFGSYKYSAKKLIDQKVLIDFSTANNVATASKLDFMFSCHQVGKFTIEVASGTVNIPGATNTITLDELLALQYENKTKFELFDGMATFDSNNFMGLIFRKFYDLKKE
B2: Ras GTPase-activating-like protein IQG1 (Candida albicans (strain SC5314 / ATCC MYA-2876)), Q5AH02 (parent)
chain: B1 chain
partner: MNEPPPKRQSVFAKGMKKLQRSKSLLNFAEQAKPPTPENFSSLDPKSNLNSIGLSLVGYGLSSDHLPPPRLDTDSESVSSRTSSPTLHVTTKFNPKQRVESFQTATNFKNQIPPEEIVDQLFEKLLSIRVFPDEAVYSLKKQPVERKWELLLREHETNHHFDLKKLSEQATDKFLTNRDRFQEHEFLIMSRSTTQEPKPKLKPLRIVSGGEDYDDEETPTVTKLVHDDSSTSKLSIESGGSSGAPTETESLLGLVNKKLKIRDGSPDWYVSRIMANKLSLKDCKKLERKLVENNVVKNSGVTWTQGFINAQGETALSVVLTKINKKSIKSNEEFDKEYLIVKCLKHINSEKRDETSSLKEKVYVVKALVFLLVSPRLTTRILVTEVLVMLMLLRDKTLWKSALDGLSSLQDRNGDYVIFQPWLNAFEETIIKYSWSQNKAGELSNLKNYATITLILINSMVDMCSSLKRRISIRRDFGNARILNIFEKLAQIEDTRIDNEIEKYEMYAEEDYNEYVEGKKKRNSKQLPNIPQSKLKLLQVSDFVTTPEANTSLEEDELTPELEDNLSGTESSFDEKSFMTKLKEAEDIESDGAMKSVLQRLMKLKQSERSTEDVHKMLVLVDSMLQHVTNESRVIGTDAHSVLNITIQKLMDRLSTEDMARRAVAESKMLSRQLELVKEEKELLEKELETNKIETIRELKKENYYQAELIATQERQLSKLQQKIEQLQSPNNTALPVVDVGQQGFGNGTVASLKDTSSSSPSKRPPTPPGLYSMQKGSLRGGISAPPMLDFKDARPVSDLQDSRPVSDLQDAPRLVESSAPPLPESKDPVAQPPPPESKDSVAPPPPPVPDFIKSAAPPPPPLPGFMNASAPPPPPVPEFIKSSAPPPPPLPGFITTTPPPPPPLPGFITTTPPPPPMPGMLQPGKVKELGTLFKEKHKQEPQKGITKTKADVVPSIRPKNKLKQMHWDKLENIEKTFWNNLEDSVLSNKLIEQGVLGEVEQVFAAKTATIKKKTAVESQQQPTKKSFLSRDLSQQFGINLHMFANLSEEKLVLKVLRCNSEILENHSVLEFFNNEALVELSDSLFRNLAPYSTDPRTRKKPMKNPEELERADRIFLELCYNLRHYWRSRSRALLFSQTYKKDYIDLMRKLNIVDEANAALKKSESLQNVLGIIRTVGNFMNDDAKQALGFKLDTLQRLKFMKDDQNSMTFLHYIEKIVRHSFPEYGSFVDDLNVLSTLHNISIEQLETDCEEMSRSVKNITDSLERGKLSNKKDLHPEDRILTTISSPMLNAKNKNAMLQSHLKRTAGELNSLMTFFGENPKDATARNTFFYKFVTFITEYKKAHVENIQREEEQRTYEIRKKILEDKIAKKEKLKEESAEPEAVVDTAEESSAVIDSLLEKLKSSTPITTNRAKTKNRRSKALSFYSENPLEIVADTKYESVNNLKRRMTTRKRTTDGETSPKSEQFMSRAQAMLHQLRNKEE

Variants of B1 are the subject of one experiment. The following applies: with bni1_canal BNI1, Q5AL52.
Chain of bni1_canal BNI1, Q5AL52 (Q5AL52 whole entry): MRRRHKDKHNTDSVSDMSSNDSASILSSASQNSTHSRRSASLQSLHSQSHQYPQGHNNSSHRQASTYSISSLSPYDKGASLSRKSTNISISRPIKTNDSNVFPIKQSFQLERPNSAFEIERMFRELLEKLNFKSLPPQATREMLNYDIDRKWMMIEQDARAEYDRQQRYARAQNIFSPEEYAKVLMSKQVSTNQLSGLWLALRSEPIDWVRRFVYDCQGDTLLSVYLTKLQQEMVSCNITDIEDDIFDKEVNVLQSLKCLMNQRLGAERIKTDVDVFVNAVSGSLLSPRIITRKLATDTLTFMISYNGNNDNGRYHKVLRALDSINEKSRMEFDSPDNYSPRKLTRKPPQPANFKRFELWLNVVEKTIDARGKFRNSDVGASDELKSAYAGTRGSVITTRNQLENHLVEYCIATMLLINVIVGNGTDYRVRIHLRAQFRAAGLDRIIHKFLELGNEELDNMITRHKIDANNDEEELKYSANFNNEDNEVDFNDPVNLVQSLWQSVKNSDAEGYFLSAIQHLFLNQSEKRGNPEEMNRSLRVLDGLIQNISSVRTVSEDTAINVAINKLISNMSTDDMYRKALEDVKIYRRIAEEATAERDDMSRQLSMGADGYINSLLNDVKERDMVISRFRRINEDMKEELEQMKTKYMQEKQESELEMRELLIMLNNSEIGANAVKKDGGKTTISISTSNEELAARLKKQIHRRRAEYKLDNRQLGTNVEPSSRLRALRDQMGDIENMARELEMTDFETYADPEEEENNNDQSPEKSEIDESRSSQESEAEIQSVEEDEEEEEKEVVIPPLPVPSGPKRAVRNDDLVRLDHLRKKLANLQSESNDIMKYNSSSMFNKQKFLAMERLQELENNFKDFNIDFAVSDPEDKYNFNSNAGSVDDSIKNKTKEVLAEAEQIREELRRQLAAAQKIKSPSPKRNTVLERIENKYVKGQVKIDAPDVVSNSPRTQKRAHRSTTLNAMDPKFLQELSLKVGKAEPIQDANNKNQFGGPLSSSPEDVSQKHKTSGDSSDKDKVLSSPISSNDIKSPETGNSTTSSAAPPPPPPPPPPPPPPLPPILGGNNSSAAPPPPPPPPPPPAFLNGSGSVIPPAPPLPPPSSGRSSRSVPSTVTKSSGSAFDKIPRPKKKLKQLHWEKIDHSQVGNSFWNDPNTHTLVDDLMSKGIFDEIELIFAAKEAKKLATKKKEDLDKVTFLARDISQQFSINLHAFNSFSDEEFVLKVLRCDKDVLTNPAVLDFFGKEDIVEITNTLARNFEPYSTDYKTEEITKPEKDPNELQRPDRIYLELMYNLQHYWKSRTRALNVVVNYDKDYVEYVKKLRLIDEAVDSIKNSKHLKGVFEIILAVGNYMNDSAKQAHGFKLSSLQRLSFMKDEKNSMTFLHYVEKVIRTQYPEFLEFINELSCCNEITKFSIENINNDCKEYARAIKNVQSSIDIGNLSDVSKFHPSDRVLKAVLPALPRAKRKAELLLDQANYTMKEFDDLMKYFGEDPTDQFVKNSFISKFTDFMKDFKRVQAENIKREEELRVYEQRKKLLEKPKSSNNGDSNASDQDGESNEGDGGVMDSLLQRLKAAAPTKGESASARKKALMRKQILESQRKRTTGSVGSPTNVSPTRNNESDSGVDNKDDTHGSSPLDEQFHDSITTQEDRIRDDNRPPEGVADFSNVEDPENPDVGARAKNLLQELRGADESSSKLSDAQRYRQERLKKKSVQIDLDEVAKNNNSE
As for E15A, the “effect of a mutation on the interaction” value is on record as “disrupting interaction”.

The variants in a further experiment derive from B2. Particulars: with bnr1_canal BNR1, Q5AAF4.
Take E15A: the “effect of a mutation on the interaction” value is reported as “disrupting interaction”.
